Measured values taken from the supplement of paper PMC10567573.
± gives the standard deviation.

Test: protein stability index of a GFP-peptide fusion (GPS, HEK-293T) (PSI 1-6); higher = more stable
Details: c terminus: a fixed tail appended
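Also: 24-mer peptide tiles fused after GFP, lentivirally expressed, FACS-sorted into six equal bins by GFP/DsRed ratio, decoded by Illumina sequencing, PSI is the read-weighted mean bin number.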

NVEDASHEEVVEKVKKSGSRVMFL [PDZK1]
protein stability index (treatment: DMSO): 4.45 ± 0.2

GSAAGHVLVKDNGLGCKDLDLIFH [TENT5C]
protein stability index (treatment: DMSO): 2.59 ± 0.32 | protein stability index (treatment: MLN4924 1 uM, 8 h): 2.84 ± 0.44

QSVSYSKLLSVIVWMLMLLLAVPN [P2RY14]
protein stability index (treatment: DMSO): 3.24 ± 0.27 | protein stability index (treatment: MLN4924 1 uM, 8 h): 3.17 ± 0.49

PHQCSECGRAFSRKSLLVVHQRTH [ZNF649]
protein stability index (treatment: DMSO): 4.93 ± 0.2 | protein stability index (treatment: MLN4924 1 uM, 8 h): 5.12 ± 0.16

NRVSAIIFSLATEWVISTGHDKCV [WDFY1]
protein stability index (treatment: DMSO): 2.96 ± 0.23 | protein stability index (treatment: MLN4924 1 uM, 8 h): 2.89 ± 0.4

PMPLSEGKSILLFGGAAAVAILAV [BCL2L13]
protein stability index (treatment: DMSO): 2.77 ± 0.76 | protein stability index (treatment: MLN4924 1 uM, 8 h): 2.75 ± 0.69

LTFFAFLHCWLNAFAEMLRFGDRM [SOAT1]
protein stability index (treatment: DMSO): 3.4 ± 0.23 | protein stability index (treatment: MLN4924 1 uM, 8 h): 2.9 ± 0.5

AEAGHVDICHMLVQFCRLGSPRSR [EHMT1]
protein stability index (treatment: DMSO): 2.3 ± 0.17 | protein stability index (treatment: MLN4924 1 uM, 8 h): 2.37 ± 0.34

VADGLCCVLTTPCLTQSTAAPAVR [SLA]
protein stability index (treatment: DMSO): 2.5 ± 0.54 | protein stability index (treatment: MLN4924 1 uM, 8 h): 2.77 ± 0.2

KCFHEIITIGYRVYHSYDLPWFRT [CDS1]
protein stability index (treatment: DMSO): 2.88 ± 0.49 | protein stability index (treatment: MLN4924 1 uM, 8 h): 2.87 ± 0.56

LQVTEDVNSSIKTFFCPNDTYNDM [CLCN6]
protein stability index (treatment: DMSO): 3.66 ± 0.22 | protein stability index (treatment: MLN4924 1 uM, 8 h): 3.65 ± 0.25

ACDIRVAASSAKMGLVETKLAIIP [AUH]
protein stability index (treatment: DMSO): 2.95 ± 0.22 | protein stability index (treatment: MLN4924 1 uM, 8 h): 3.03 ± 0.32

AEISARTMQSMFAKNFHVKAVMKT [PTPRD]
protein stability index (treatment: DMSO): 2.56 ± 0.32 | protein stability index (treatment: MLN4924 1 uM, 8 h): 2.67 ± 0.39

PMDSTMDDAVAGDFALINKLDIQC [ATE1]
protein stability index (treatment: DMSO): 4.4 ± 0.26 | protein stability index (treatment: MLN4924 1 uM, 8 h): 4.29 ± 0.24

LGMVGLFGTIISGIQLLIVEYKDI [SLC35F2]
protein stability index (treatment: DMSO): 3.16 ± 0.42 | protein stability index (treatment: MLN4924 1 uM, 8 h): 3.53 ± 0.41

YFRDLPEPLMTNKLSETFLQIYQY [DLC1]
protein stability index (treatment: DMSO): 2.37 ± 0.32 | protein stability index (treatment: MLN4924 1 uM, 8 h): 2.26 ± 0.24

IVWSLAFGSSVPEKQSRCVNIEWH [WSB1]
protein stability index (treatment: DMSO): 2.92 ± 0.36 | protein stability index (treatment: MLN4924 1 uM, 8 h): 2.93 ± 0.21

NLRRHVPDLESGSESGADTISVNQ [DLC1]
protein stability index (treatment: DMSO): 5.29 ± 0.27 | protein stability index (treatment: MLN4924 1 uM, 8 h): 5.25 ± 0.28

FSGDGEYIVAGSARQHALYIWEKS [RBBP5]
protein stability index (treatment: DMSO): 2.59 ± 0.32 | protein stability index (treatment: MLN4924 1 uM, 8 h): 2.57 ± 0.32

FGSSVPEKQSRCVNIEWHRFRFGQ [WSB1]
protein stability index (treatment: DMSO): 2.07 ± 0.34 | protein stability index (treatment: MLN4924 1 uM, 8 h): 2.12 ± 0.24

LFYDDYYEDGEVEEEADSCFGDDE [CDC34]
protein stability index (treatment: DMSO): 4.79 ± 0.17 | protein stability index (treatment: MLN4924 1 uM, 8 h): 4.78 ± 0.3

QALKFLPVPSAPVIDLAESLVADN [FSD1]
protein stability index (treatment: DMSO): 3.48 ± 0.42 | protein stability index (treatment: MLN4924 1 uM, 8 h): 3.77 ± 0.28

CEKYLPGYYSEKLEAIQLDGEILF [TBC1D10A]
protein stability index (treatment: DMSO): 2.14 ± 0.19 | protein stability index (treatment: MLN4924 1 uM, 8 h): 2.12 ± 0.24

RDKNWQTPLHVAAANKAVKCAEVI [ANKRD44]
protein stability index (treatment: DMSO): 3.69 ± 0.38 | protein stability index (treatment: MLN4924 1 uM, 8 h): 3.7 ± 0.19

GGSHPSRPNSRHTPSFSGDSSSSC [VDR]
protein stability index (treatment: DMSO): 4.75 ± 0.28 | protein stability index (treatment: MLN4924 1 uM, 8 h): 4.73 ± 0.19

SFPEPEAAQPMTKKRKVDGLSTEA [PRAME]
protein stability index (treatment: DMSO): 5.19 ± 0.3 | protein stability index (treatment: MLN4924 1 uM, 8 h): 5.16 ± 0.14

ALRQSVEADINGLRRVLDELTLSK [KRT13]
protein stability index (treatment: DMSO): 3.08 ± 0.2 | protein stability index (treatment: MLN4924 1 uM, 8 h): 3.09 ± 0.26

RTLPNASTVDNIRSIFGNAVSREL [MLH1]
protein stability index (treatment: DMSO): 3.55 ± 0.12 | protein stability index (treatment: MLN4924 1 uM, 8 h): 3.54 ± 0.17

KKTVHYYAELGQCSVFPATDAPEQ [PLK2]
protein stability index (treatment: DMSO): 3.6 ± 0.27 | protein stability index (treatment: MLN4924 1 uM, 8 h): 3.64 ± 0.31

EGAIAVHCKAGLGRTGTLIACYVM [CDC14A]
protein stability index (treatment: DMSO): 3.02 ± 0.56 | protein stability index (treatment: MLN4924 1 uM, 8 h): 2.86 ± 0.51

GYLIKILTNSNLPEEELDFFEILR [CNOT7]
protein stability index (treatment: DMSO): 2.15 ± 0.25 | protein stability index (treatment: MLN4924 1 uM, 8 h): 2.23 ± 0.3

QFHDLMELFRIGGKSPDTNYLFMG [PPP2CA]
protein stability index (treatment: DMSO): 2.53 ± 0.58 | protein stability index (treatment: MLN4924 1 uM, 8 h): 2.24 ± 0.39

NSQESRSDLEDMEEEEGTRSPTLE [SMG5]
protein stability index (treatment: DMSO): 5.56 ± 0.16 | protein stability index (treatment: MLN4924 1 uM, 8 h): 5.44 ± 0.23

GSESYKSSAGSAEQTAPGDSTGYM [EHMT1]
protein stability index (treatment: DMSO): 5.16 ± 0.25 | protein stability index (treatment: MLN4924 1 uM, 8 h): 5.21 ± 0.3

EPVLLFGKIRRGAYALPAGLSAPA [TRIB3]
protein stability index (treatment: DMSO): 2.76 ± 0.19 | protein stability index (treatment: MLN4924 1 uM, 8 h): 3.01 ± 0.26

PPRGPQQLSSFGSVDWLSQSSCSG [VENTX]
protein stability index (treatment: DMSO): 3.77 ± 0.56 | protein stability index (treatment: MLN4924 1 uM, 8 h): 3.96 ± 0.34

LSVDPEEEREEGPPRIPQADQWKS [RHOBTB1]
protein stability index (treatment: DMSO): 5.28 ± 0.075 | protein stability index (treatment: MLN4924 1 uM, 8 h): 5.26 ± 0.24

HRRRTICGTPNYLSPEVLNKQGHG [PLK2]
protein stability index (treatment: DMSO): 3.99 ± 0.19 | protein stability index (treatment: MLN4924 1 uM, 8 h): 4.17 ± 0.17

LEKGSFVGNISKDLGLAPRELAER [PCDHGA10]
protein stability index (treatment: DMSO): 4.43 ± 0.35 | protein stability index (treatment: MLN4924 1 uM, 8 h): 4.54 ± 0.33

LLFMTSRVRFGQQKRYQDWFQRQY [INTS3]
protein stability index (treatment: DMSO): 1.99 ± 0.58 | protein stability index (treatment: MLN4924 1 uM, 8 h): 2.24 ± 0.64

AAKQLEYQQLEDDKLSQKSSSSKL [EPB41L3]
protein stability index (treatment: DMSO): 5 ± 0.64 | protein stability index (treatment: MLN4924 1 uM, 8 h): 4.92 ± 0.33

ERRRGPAAGEQLQQQHVSCQVFPE [ATP23]
protein stability index (treatment: DMSO): 4.6 ± 0.21 | protein stability index (treatment: MLN4924 1 uM, 8 h): 4.72 ± 0.36

GGQITDEMAEQLMTLAYDNGINLF [KCNAB2]
protein stability index (treatment: DMSO): 2.79 ± 0.17 | protein stability index (treatment: MLN4924 1 uM, 8 h): 2.9 ± 0.35

INHLLKSPFSVHPKTGRISVPIDL [PRIM1]
protein stability index (treatment: DMSO): 2.06 ± 0.21 | protein stability index (treatment: MLN4924 1 uM, 8 h): 2.48 ± 0.17

QSAFLHLPLPEQIHKASATIIEPA [INTS4]
protein stability index (treatment: DMSO): 3.45 ± 0.31 | protein stability index (treatment: MLN4924 1 uM, 8 h): 3.82 ± 0.1
